Results: IntAct's records for PubMed 21965663

Target: dyr1a_mouse Dyrk1a (UniProt Q61214)

Calcipressin-1 (Homo sapiens), P53805-2 S112A, sequence (P53805 other isoform, or with tags, fused parts or gaps S112A): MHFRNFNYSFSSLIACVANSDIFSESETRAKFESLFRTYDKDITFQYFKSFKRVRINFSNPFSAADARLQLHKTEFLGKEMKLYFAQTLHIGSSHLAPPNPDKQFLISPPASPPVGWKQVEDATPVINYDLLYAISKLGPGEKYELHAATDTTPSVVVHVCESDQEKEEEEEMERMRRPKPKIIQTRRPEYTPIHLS
Calcipressin-1 (Homo sapiens), P53805-2 T192A, sequence (P53805 other isoform, or with tags, fused parts or gaps T192A): as the sequence (P53805 other isoform, or with tags, fused parts or gaps S112A) above
Calcipressin-1 (Homo sapiens), P53805-2 S112A;T192A, sequence (P53805 other isoform, or with tags, fused parts or gaps S112A;T192A): as the sequence (P53805 other isoform, or with tags, fused parts or gaps S112A) above

Row | Substance | effect of a mutation on the interaction
1 | Calcipressin-1 (Homo sapiens), P53805-2 S112A | decreasing interaction
2 | Calcipressin-1 (Homo sapiens), P53805-2 S112A;T192A | disrupting interaction
3 | Calcipressin-1 (Homo sapiens), P53805-2 T192A | decreasing interaction
